Reference: patent publication US20210220432A1, “Application of Polypeptide in Preparation of Composition for Preventing and Treating Human Papillomavirus Infection” (GENLOCI BIOTECHNOLOGIES INC., priority 2018, published 2021)
No end group written: not given here.

How the values were obtained:
[1] = test system: HPV; settings: literature study; HD6 at the highest cytotoxic dose; cited from earlier work
[2] = biological target: T1, HPV-16 L1 protein (Human papillomavirus type 16, UniProt P03101); assay: Biomolecular interaction analysis (SPR, Biacore 3000) of the polypeptide with HPV-16 L1 protein; type: binding
T1 construct: purchased Abcam ab119880
Text: Biomolecular interaction analysis (BIA) is a biosensing analysis technology based on a physical optical phenomenon known as surface plasmon resonance (SPR). BIA can provide real-time observation of the interaction between biomolecules, through which, the binding specificity of two molecules can be observed, how strong the binding of the two molecules is can be known, and how many cooperators and participants there are in the binding process of biomolecules can be known.
In this experiment, BIA technology is used to observe whether there is an interaction between the polypeptide of the present invention and the HPV L1 protein, so as to explore the mechanism of inhibiting HPV virus by the polypeptide.
3. […]
(5) The coupling effect is automatically calculated by the software. In the experiment, the experimental channel is finally coupled with about 5300 RU of HPV-16 L1 Protein, where the unit RU is the unit of coupling quantity defined by the system. […]
(8) The program is designed according to the steps of equilibration, testing, equilibration, and regeneration, and the polypeptide solution of each concentration was detected. […] During the detection, the sample passes through the blank channel and the experimental channel in turn, and the data to be detected is the resultant difference of “experimental channel response value minus blank channel response value”. […]

[3] = biological target: T2, HPV-16 L1 protein (Cat. No. ab119880, Abcam), recombinantly expressed (human papillomavirus type 16), P03101; assay: SPR, Biacore 3000, HPV-16 L1 amine-coupled on chip, polypeptide as analyte
T2 chain: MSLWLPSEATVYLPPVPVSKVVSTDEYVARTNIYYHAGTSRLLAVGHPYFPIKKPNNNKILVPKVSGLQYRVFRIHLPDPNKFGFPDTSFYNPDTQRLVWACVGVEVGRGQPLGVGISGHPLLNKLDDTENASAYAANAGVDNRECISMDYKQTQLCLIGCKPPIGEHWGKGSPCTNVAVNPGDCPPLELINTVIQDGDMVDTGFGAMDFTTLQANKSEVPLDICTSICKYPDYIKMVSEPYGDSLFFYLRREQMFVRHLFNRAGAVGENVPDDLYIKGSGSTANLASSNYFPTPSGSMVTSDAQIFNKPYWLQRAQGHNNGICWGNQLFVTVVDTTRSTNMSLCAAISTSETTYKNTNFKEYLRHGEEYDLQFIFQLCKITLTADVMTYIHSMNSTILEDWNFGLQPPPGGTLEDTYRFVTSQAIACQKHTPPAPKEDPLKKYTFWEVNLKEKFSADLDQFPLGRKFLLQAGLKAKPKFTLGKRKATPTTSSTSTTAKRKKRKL

HD6: human α-defensin secreted by human Paneth cells (AFTCHCRRSCYSTEYSYGTCTVMGINHRFCCL; ends and bridges not checked; cysteine pairing not given here; UniProt Q01524 69-100, looked up) [reference compound]
Activity against HPV [1]: inactive

MGRFKRFRKKFKKLFKKLS [The polypeptide]
Kd ([2]; KD, Affinity constant, SPR, kinetic analysis, HPV-16 L1 protein): 0.782 nM | kon ([2]; read-out: ka, Binding constant): 2.35e+06 M⁻¹ s⁻¹

MGRFKRFRKKFKKLFKKLS (modifications not checked) [the polypeptide of the present invention (antimicrobial polypeptide, SEQ ID NO: 1)]
Kd [3]: 0.782 nM | koff [3]: 0.00184 s⁻¹ | kon [3]: 2.35e+06 M⁻¹ s⁻¹

B1: HD5: human α-defensin secreted by human Paneth cells (peptide, UniProt Q01523 20-94, looked up)
Defensin alpha 5: ESLQERADEATTQKQSGEDNQDLAISFAGNGLSALRTSGSQARATCYCRTGRCATRESLSGVCEISGRLYRLCCR
modifications: Defensin-5
notes: human α-defensin secreted by human Paneth cells
Activity against HPV [1]: inhibiting HPV activity
